From US20120317681A1

Assays:
[1] = target: Cry1Ca receptor protein(s) / binding site on Brush Border Membrane Vesicles (BBMV's) from Spodoptera frugiperda (Spodoptera frugiperda); assay: homologous competition; displacement of 0.5 nM 125I-labeled Cry1Ca core toxin from S. frugiperda BBMV (150 ug/mL)
[2] = target: Cry1Ca receptor protein(s) / binding site on Brush Border Membrane Vesicles (BBMV's) from Spodoptera frugiperda (Spodoptera frugiperda); assay: heterologous competition; displacement of 0.5 nM 125I-labeled Cry1Ca core toxin from S. frugiperda BBMV (150 ug/mL)

**Q.** For “Cry1Ca core toxin protein (non-radiolabeled, trypsin-activated) (from UniProt P0A376 28-618) (ligand)”, which IC50 [1] is on record?
**A.** 5 nM

**Q.** With “Cry1Fa core toxin protein (non-labeled, trypsin-activated) (from UniProt Q03746 28-605) (ligand)” as the substance, how does the IC50 [2] read?
**A.** > 300 nM
